Laboratory results: patent publication US20210363232A1 (Eli Lilly, published 2021)
Values belong to the binder of their own block, whether it stands above or below them.

B1: mature Human IL-34 (ligand)
chain: NEPLEMWPLTQNEECTVTGFLRDKLQYRSRLQYMKHYFPINYKISVPYEGVFRIANVTRLQRAQVSERELRYLWVLVSLSATESVQDVLLEGHPSWKYLQEVETLLLNVQQGLTDVEVSPKVESVLSLLNAPGPNLKLVRPKALLDNCFRVMELLYCSCCKQSSVLNWQDCEVPSPQSCSPEPSLQYAATQLYPPPPWSPSSPPHSTGSVRPVRAQGEGLLP
notes: if the entry is the precursor, residues 21-242 apply; NCBI NP_689669.2 is printed; also called hIL-34; h IL-34

Key:
[1] = target: T1, Human CSF1R Fc fusion protein (Exemplified compound D) (human, UniProt P07333 20-512, limits assumed); assay: MSD solution equilibrium titration at 37 C; fixed Fc fusion, IL-34 titrated, free protein captured on IL-34-coated plate; mean ± STDEV, n = 5
T1 construct: Made in house and purified by MabSelect SuRe and size exclusion; also called hCSF1R-Fc; Exemplified compound D (hCSF1R-Fc); not shown: Fc part

[2] = target: B1; assay: cell-based or functional assay
[3] = target: T2, Cyno IL-34 (cyno (cynomolgus monkey), UniProt G7Q1L3 21-242); assay: MSD solution equilibrium titration at 37 C; fixed antibody, cyno IL-34 titrated; mean ± STDEV, n = 5
T2 construct: also called cynomolgus IL-34
T2 sequence: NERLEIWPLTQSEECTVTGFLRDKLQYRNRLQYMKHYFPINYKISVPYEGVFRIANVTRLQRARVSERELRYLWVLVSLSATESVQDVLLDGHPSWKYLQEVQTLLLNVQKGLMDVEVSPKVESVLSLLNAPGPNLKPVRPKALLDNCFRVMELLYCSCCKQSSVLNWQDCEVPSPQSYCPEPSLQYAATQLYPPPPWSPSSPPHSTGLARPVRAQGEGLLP
Protocol: (§1) Briefly, usually a 2-fold or 3-fold dilution series of human, cyno or mouse IL-34 is prepared from a starting concentration of 40, or 50 or 60 or 80 or 100 or 120 nM to 100 fM; and each series includes an IL-34 blank control. Samples are prepared in 3% (w/v) Blocker A solution (MSD®, #R93AA-1) and a fixed final concentration of 5-50 pM of each exemplified antibody in Table 1 is added to each sample. An antibody only control is included. A volume of 50 μl of each protein-antibody sample is added to individual wells of a 96-well microtiter plate (Greiner, EK-20101). The plate is sealed with optical adhesive film (Thermo Fisher Scientific, #4311971) and incubated at 37° C. for 1-3 days to allow for sample equilibrium. On the day before analysis, each row of a 96-well MSD® Standard plate (MSD®, #L15XA) is coated with 30 μl of the corresponding IL-34 (as used in the titration series) at a concentration of 1 μg/ml in phosphate buffered saline (PBS). […] The plate is washed three more times with PBST followed by the addition of 150 μl/well of 1× Read buffer (MSD®, #R92TC-2). The MSD® Standard plate is read using a MESO Quickplex SQ 120/1300 instrument (Meso Scale Discovery).

[4] = target: B1; assay: cell-based or functional assay; remark: listed apart in the source
[5] = target: T2, Cyno IL-34; assay: cell-based or functional assay
[6] = target: B1; assay: MSD solution equilibrium titration at 37 C; fixed antibody, IL-34 titrated, free antibody captured on IL-34-coated plate; mean ± STDEV, n = 5
Protocol: as §1

[7] = target: IL-34 (species not stated); assay: cell-based or functional assay
[8] = target: T3, Mouse IL-34 (mouse, UniProt Q8R1R4 21-235); assay: MSD solution equilibrium titration at 37 C; fixed antibody, mouse IL-34 titrated
T3 construct: NCBI NP_001128572.1 is printed; also called Murine IL-34
T3 sequence: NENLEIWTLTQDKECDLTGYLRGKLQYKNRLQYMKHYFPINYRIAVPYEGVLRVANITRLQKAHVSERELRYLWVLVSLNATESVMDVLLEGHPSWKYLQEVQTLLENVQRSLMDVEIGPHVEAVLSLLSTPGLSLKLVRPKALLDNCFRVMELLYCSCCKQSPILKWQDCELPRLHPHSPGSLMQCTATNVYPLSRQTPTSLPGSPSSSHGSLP
Protocol: as §1

T1 sequence (P07333 20-512 limits assumed): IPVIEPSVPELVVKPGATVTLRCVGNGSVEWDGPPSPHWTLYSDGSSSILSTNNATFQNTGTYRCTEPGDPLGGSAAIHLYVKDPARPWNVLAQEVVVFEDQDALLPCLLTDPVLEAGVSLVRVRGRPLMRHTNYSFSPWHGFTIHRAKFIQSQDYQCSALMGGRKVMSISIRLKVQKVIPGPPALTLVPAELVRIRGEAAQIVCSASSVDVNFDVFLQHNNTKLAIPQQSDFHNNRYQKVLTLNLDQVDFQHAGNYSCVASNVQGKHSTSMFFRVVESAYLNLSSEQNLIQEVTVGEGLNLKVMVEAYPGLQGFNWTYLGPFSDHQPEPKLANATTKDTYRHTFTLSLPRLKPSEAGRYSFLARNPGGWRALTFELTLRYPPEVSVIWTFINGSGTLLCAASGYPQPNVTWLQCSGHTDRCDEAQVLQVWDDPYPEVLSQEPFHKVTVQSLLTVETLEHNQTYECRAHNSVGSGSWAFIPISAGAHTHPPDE

Binder: B1
Kd [1]: 0.056 nM

B2: Antibody 1 (antibody, human IgG4 S228P, kappa, F234A L235A, V domains shown)
VH: EVQLLESGGGLVQPGGSLRLSCAASGFTFSSYATSWVRQAPGKGLEWVSAISHSGRSTYYADSVKGRFTISRDNSKNTLYLQMNSLRAEDTAVYYCARGRSSLDTWGQGTLVTVSS
VL: EIVLTQSPGTLSLSPGERATLSCRASQSISSAYLAWYQQKPGQAPRLLIYASSIRPTGIPDRFSGSGSGTDFTLTISPLEPEDFAVYYCSQYGDSLSFGGGTKVEIKR
notes: Human anti-human IL-34 antibody with a modified IgG4 (IgG4PAA) heavy chain and kappa light chain; also called Exemplified Antibody 1
IC50; inhibition of human IL-34 induced CSF1R dimerization, PathHunter eXpress assay [2]: 0.226 nM | Kd [3]: 0.108 nM | IC50; neutralization of human IL-34 induced luciferase reporter activity, hCSF1R 293 SRE cells [4]: 0.385 nM | IC50; neutralization of cyno IL-34 induced luciferase reporter activity, hCSF1R 293 SRE cells [5]: 0.654 nM | Kd [6]: 0.059 nM

Results, then the binder that gave them:

IC50; inhibition of IL-34 induced ERK phosphorylation in NIH-3T3/CSF1R cells [7]: 15.7 nM | Kd [8]: 0.016 nM
B3: Antibody 3 (antibody, mouse IgG1, kappa, V domains shown)
VH: EVQLLESGGGLVQPGGSLRLSCAASGFTFSYYAMSWVRQAPGKGLEWVSAISHRGGSTLYADSVKGRFTISRDNSKNTLYLQMNSLRAEDTAVYYCARGRSSLDGWGQGTMVTVSS
VL: EIVLTQSPGILSLSPGERASLSCRASTSVSSAYLAWYQQKPGQAPRLLIYASSHRPLGIPDRFSGSGSGTDFTLTISRLEPEDFAVYYCQQYGDSLSFGGGTKVEIKR
notes: Antibody optimised against mouse IL-34; The printed constant regions look murine, and a mIgG1 control is used in vivo; also called Exemplified Antibody 3

Kd [3]: 0.152 nM | Kd [6]: 0.054 nM
B4: Antibody 2 (antibody, human IgG4 S228P, kappa, F234A L235A, V domains shown)
VH: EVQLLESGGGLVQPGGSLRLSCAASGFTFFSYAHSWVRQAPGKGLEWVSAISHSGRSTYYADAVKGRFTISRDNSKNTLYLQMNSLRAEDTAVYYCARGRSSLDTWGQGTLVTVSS
VL: EIVLTQSPGTLSLSPGERATLSCRASQSISSAYLAWYQQKPGQAPRLLIYASSIRPTGIPDRFSGSGSGTDFTLTISPLEPEDFAVYYCSQYGDSLSFGGGTKVEIKR
notes: Shares its light chain with Antibody 1; Modified IgG4 heavy chain; also called Exemplified Antibody 2
